The record followed here is US20160060340A1 (Kyowa Kirin, published 2016).

The target of test [1] is T1, FOLR1-mycHis (human, UniProt P15328 25-233).
T1 construct: Secreted from CHO/DG44 cells, purified on Ni-NTA; Residues 1-233 include the native signal peptide; also called non-reducing FOLR1-mycHis; recombinant protein having myc and His tag at the C-terminus of FOLR1 (1-233 amino acids); not shown: myc and His tag at the C-terminus
Kind of test: SPR as in Example 29, antibody captured, FOLR1-mycHis as analyte, 1:1 binding model. Here is the method:
(§1) The affinities of ChRA15-7Acc antibody and MORAb-003 antibody for FOLR1 were measured by a surface plasmon resonance method. The measurement was carried out in the same manner as in Example 16, except that a Human Antibody Capture Kit (GE Healthcare) was immobilized onto the CM5 chip by amine coupling and FOLR1-mycHis prepared by five-step dilution (12.3, 37, 111, 333, 1000 ng/mL) was applied as an analyte.
In the same manner as in Example 29, affinity of HuRA15-7CTAcc antibody for FOLR1 was measured by the surface plasmon resonance method.

The target of test [2] is T2, Rat2-FOLR1-mycHis (human with a rat segment).
T2 construct: also called rat/human chimeric FOLR1-mycHis (human 55-62 replaced by rat 53-60)
T2 sequence (chain, as listed by the source limits assumed): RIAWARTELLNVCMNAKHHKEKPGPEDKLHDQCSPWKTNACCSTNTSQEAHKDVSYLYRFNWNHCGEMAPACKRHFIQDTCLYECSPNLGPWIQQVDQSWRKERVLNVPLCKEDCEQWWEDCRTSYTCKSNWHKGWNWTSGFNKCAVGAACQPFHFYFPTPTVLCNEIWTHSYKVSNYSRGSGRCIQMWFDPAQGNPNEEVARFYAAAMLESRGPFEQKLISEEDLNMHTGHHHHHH
Kind of test: ELISA as in Example 35, antigen coated; x indicates that no reaction occurred. The protocol:
(§2) First, each 50 μL/well of FOLR1-mycHis, Rat1-FOLR1-mycHis, Rat2-FOLR1-mycHis, and Rat4-FOLR1-mycHis which were prepared at a concentration of 10 μg/mL using PBS was […] in a 96-well plate for ELISA, and then incubated at 4° C. overnight. Each well was washed with PBS, and then 200 μL/well of 1% BSA/PBS was added at room temperature for 1 hour for blocking.
(§3) In the same manner as in Example 35, reactivities of ChRA15-7Acc antibody, MORAb-003 antibody, MOv18 antibody, and HuRA15-7CTAcc antibody were evaluated using FOLR1-mycHis prepared in Example 11 and Rat1-FOLR1-mycHis, Rat2-FOLR1-mycHis, Rat4-FOLR1-mycHis prepared in Example 34.

Test [3] concerns the target T3, Rat4-FOLR1-mycHis (human with a rat segment).
T3 construct: also called rat/human chimeric FOLR1-mycHis (human 91-95 replaced by rat 89-93)
Kind of test: ELISA as in Example 35, antigen coated; white circle indicates that reaction occurred. Here is the method: as §2, §3

Test [4] addresses T2, Rat2-FOLR1-mycHis. Kind of test: ELISA, antigen coated at 10 µg/mL; x indicates that no reaction occurred.
Test [5] has as its target T1, FOLR1-mycHis. Description: SPR (Biacore T100), antibody captured with Human Antibody Capture Kit, FOLR1-mycHis as analyte, 1:1 binding model. The protocol:
The affinity was analyzed from association constant (Ka) and dissociation constant (Kd) by Single-cycle kinetics. Kinetic constants (ka, kd, KD) were calculated by 1:1 binding model using a Biacore T-100 Evaluation software (GE Healthcare).
as §1

Test [6] deals with T3, Rat4-FOLR1-mycHis. Kind of test: ELISA, antigen coated at 10 µg/mL, antibody 14-10000 ng/mL; white circle indicates that reaction occurred. The protocol: as §2

T1 sequence (P15328 25-233): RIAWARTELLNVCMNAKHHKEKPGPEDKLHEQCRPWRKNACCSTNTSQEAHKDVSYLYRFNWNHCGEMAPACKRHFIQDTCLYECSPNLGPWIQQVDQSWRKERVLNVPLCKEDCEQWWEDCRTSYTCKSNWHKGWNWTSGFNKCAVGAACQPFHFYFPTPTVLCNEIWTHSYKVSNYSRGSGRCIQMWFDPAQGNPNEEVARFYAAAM
T3 sequence (chain, as listed by the source limits assumed): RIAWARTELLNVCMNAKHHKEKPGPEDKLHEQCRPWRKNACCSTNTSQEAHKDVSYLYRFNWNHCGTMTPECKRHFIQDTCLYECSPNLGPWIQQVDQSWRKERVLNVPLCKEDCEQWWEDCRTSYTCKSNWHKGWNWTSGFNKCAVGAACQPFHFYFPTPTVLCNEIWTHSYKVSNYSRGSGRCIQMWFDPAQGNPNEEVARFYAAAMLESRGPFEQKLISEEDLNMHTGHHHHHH

B1: HuRA15-7CTAcc antibody (antibody, human IgG1, V domains shown)
VH: EVQLVESGGGLVQPGGSLRLSCAASGFTFTDFYMNWVRQPPGKAPEWLGFIRNKANGYTTEFNPSVKGRFTISRDNSKNSLYLQMNSLKTEDTATYYCARTLYGYAYYYVMDAWGQGTLVTVSS
VL: DIQMTQSPSSLSASLGDRVTITCRTSEDIFRNLAWYQQKPGKAPKLLIYDTNRLADGVPSRFSGSGSGTDYTLTISSLQPEDFATYFCQQYDNYPLTFGQGTKLEIK
notes: Defucosylated, made in CHO/Ms704 cells; also called CDC enhancement technology-applied defucosylated HuRA15-7CT
B1 yielded a Kd in the test with FOLR1-mycHis [1] of 0.65 nM. In the test with FOLR1-mycHis [1], this molecule showed a koff of 0.00108 s⁻¹. Besides, the results for the binding result with Rat2-FOLR1-mycHis [2] and with Rat4-FOLR1-mycHis [3] were “no binding (tested: up to 10000 ng/mL)” and “binds”, respectively.

B2: ChRA15-7Acc antibody (antibody, human IgG1, V domains shown)
VH: EVKLLESGGGLVQPGGSMRLSCAASGFTFTDFYMNWIRQPAGKAPEWLGFIRNKANGYTTEFNPSVKGRFAISRDNTQNMLYLQMNTLRAEDTATYYCARCLYGYAYYYVMDAWGQGTSVTVSS
VL: DIQMTQSPASLSASLGETVTIECRTSEDIFRNLAWYQQRPGNSPQLLIYDTNRLADGVPSRFSGSGSGTQYSLKINSLQSEDVAGYFCQQYDNYPLTFGSGTKLEIK
notes: Defucosylated, made in CHO/Ms704 cells; also called CDC enhancement technology-applied defucosylated ChRA15-7; rat/human chimeric RA15-7
As to B2, the binding result in the test with Rat2-FOLR1-mycHis [4] is on record as “no binding (tested: up to 10000 ng/mL)”. In the test with FOLR1-mycHis [5], this molecule displayed a Kd of 0.57 nM and a koff of 0.001 s⁻¹. In the test with Rat4-FOLR1-mycHis [6], the binding result is on record as “binds”.
